Results on one substance are retold here after patent US8597645.

The experiment has as its target Caspase-8 (endogenous, in melanocytes and melanoma cells) (human) (UniProt Q14790). The experiment is described as follows: cell-based or functional assay.

Sequence of Caspase-8 (endogenous, in melanocytes and melanoma cells) (human) (Q14790 whole entry): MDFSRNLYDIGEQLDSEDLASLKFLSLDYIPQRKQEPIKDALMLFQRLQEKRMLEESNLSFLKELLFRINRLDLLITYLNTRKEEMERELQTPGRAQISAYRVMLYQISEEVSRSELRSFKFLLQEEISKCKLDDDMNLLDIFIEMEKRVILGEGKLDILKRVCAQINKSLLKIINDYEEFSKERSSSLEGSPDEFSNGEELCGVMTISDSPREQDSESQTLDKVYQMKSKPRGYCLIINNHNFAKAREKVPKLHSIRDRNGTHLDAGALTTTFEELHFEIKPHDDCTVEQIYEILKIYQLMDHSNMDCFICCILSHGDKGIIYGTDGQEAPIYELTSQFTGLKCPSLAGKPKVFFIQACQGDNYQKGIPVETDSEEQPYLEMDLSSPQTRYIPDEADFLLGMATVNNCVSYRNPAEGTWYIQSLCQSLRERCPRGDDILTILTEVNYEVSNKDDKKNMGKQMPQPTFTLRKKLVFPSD

“Cell permeable caspase inhibitor containing the sequence DEVD (from UniProt P08620 7-22) (peptide)” came in with a Concentration needed to block ET-1 induced E-cadherin down-regulation, relative to the 'IETD' inhibitor of 10 fold.
